The source of these data is doi:10.1101/2024.11.23.624830 (bioRxiv, 2024).

This data set concerns the molecule itself. Briefly: single-molecule photobleaching step analysis.

The term stoichiometry N denotes the number of molecules, sites or subunits per partner or assembly.

B1: EmrE with a TC-tag (natural protein)
chain: MNPYIYLGGAILAEVIGTTLMKFSEGFTRLWPSVGTIICYCASFWLLAQTLAYIPTGIAYAIWSGVGIVLISLLSWGFFGQRLDLPAIIGMMLICAGVLIINLLSRSTPH
modifications: FlAsH dye bound covalently to the tetracysteine tag
As to B1, the “stoichiometry N” value was 2.
